This assay deals with T1, Flag-tagged Iso1, MC1R-TUBB3 in-frame intergenic splice chimera (human).
T1 construct: numbers count on: MC1R-002; Tubulin-β-III, human; A BamHI site in the TUBB3 part was ablated by site-directed mutagenesis (ATC to ATT by the printed primer, silent by my reading); also called Flag-Iso1; MC1R-TUBB3 chimeric isoform Iso1; source: HEK293T, transfected (pcDNA3); not shown: Flag, N-terminal, kept
Briefly: radioligand binding; equilibrium competition binding on transfected HEK293T cells, 24 h after transfection, serum deprived 3 h; 125I-NDP-MSH 5x10^-11 M with unlabelled NDP-MSH from 10^-12 to 10^-7 M. The following applies: one partner purified.

B1: [Nle4, D-Phe7]-αMSH (NDP-MSH), 125I-labelled (peptide)
chain: SYSLEHFRWGKPV
modifications: not fully specified; Nle at position 4; D-Phe at position 7; 125I label (tracer)
Broadly, the Kd is the free concentration of one partner at which half of the binding sites on the other are occupied at equilibrium, for simple one-to-one binding. A lower Kd goes with a tighter complex. Take B1: the Kd turned out to be 0.59 nM.
